Assays:
Test in all cases: receptor-Fc IP
VEGFR-3-Fc = target: T1, VEGFR-3-Fc (UniProt P35916 25-328)
T1 construct: domain: first three Ig domains; conditioned supernatant of 293T cells; also called VEGFR-3-Fc fusion protein; not shown: Fc fragment of the pIg vector
T1 sequence (looked up): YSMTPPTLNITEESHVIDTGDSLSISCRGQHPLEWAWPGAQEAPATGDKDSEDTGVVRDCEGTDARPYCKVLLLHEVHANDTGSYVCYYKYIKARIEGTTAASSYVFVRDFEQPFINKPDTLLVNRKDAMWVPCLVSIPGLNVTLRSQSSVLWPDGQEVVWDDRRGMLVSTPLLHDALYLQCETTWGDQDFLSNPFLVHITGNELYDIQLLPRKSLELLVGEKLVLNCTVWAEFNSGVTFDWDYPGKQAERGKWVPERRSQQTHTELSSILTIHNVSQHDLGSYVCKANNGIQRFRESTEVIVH
How it was run: (§1)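 Binding of ligand from sample supernatant measured by pentahistidine-antibody immunoprecipitation. IP mix: PBS with 1.5% BSA, 0.06% Tween 20, 3 μg/ml heparin and 400 ng/ml fusion protein, added 1:2 to sample supernatant.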

VEGFR-1-Fc = target: T2, VEGFR-1-Fc (UniProt P17948 27-338)
T2 construct: domain: first three Ig domains; expressed in Drosophila S2 cells, purified on Protein A sepharose; also called VEGFR-1-Fc fusion protein; not shown: Fc fragment from the Signal-pIgPlus vector
T2 sequence (P17948 27-338): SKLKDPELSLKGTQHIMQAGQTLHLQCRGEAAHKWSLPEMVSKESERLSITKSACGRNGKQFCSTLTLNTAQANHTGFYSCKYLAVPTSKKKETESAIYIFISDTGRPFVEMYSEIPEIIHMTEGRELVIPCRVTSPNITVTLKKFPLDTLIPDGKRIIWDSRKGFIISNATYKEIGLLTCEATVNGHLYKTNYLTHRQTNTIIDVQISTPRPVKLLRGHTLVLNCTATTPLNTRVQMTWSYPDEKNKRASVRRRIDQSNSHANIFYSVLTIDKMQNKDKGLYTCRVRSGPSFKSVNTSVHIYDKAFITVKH
How it was run: as §1

VEGFR-2-Fc = target: T3, VEGFR-2-Fc (UniProt P35968 20-322)
T3 construct: domain: first 3 Ig domains; conditioned supernatant of 293T cells; also called VEGFR-2-Fc fusion protein; not shown: Fc fragment of the pIg vector
T3 sequence (P35968 20-322): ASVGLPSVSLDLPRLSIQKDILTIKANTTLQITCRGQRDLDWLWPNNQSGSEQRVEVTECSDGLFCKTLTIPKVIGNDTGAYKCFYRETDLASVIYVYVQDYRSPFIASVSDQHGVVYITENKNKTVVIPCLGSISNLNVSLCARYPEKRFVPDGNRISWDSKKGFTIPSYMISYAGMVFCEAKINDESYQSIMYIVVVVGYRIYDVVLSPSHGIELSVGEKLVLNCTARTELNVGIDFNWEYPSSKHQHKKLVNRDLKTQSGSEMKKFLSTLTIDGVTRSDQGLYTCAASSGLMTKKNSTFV
How it was run: as §1

Measured: binding result

B1: 73-2 (ligand)
chain: GQNHHEVVKSIDNEWRKTQCMPREVCIDVGKEYPDEIEYIFKPPCVSVYRCGGCCNDEGLECMNTSTSYLSKTLFEIKPHQGQHIGEMSFLQHNKCECRPKKD
no binding: VEGFR-3-Fc | VEGFR-1-Fc | VEGFR-2-Fc

B2: 71-12 (ligand)
chain: GQNHHEVVKSIDNEWRKTQCMPREVCIDVGKEYPDEIEYIFKPSCVPLMRCGGCCNSEGLQCMNTSTSYLSKTLFEITVPLSQGPKPVTISFLQHNKCECRPKKD
no binding: VEGFR-3-Fc | VEGFR-1-Fc | VEGFR-2-Fc

B3: 71-16 (ligand)
chain: GQNHHEVVKSIDNEWRKTQCMPREVCIDVGKEYPDEIEYIFKPSCVPLMRCGGCCNSEGLQCMNTSTSYLSKTLFEITVPLSQGPKPVTISFANHTSCRCMSKLD
no binding: VEGFR-3-Fc | VEGFR-1-Fc | VEGFR-2-Fc

B4: 73-12 (ligand)
chain: GQNHHEVVKSIDNEWRKTQCMPREVCIDVGKEYPDEIEYIFKPPCVSVYRCGGCCNSEGLQCMNTSTSYLSKTLFEITVPLSQGPKPVTISFLQHNKCECRPKKD
no binding: VEGFR-3-Fc | VEGFR-1-Fc | VEGFR-2-Fc

B5: 73-10 (ligand)
chain: GQNHHEVVKSIDNEWRKTQCMPREVCIDVGKEYPDEIEYIFKPPCVSVYRCGGCCNDEGLECMNTSTSYLSKTLFEITVPLSQGPKPVTISFLQHNKCECRPKKD
no binding: VEGFR-3-Fc | VEGFR-1-Fc | VEGFR-2-Fc

B6: 73-1 (ligand)
chain: GQNHHEVVKSIDNEWRKTQCMPREVCIDVGKEYPDEIEYIFKPPCVSVYRCGGCCNDEGLECVPTEESNITMQIMRIKPHQGQHIGEMSFLQHNKCECRPKKD
no binding: VEGFR-3-Fc | VEGFR-1-Fc | VEGFR-2-Fc

B7: 73-3 (ligand)
chain: GQNHHEVVKSIDNEWRKTQCMPREVCIDVGKEYPDEIEYIFKPPCVSVYRCGGCCNSEGLQCVPTEESNITMQIMRIKPHQGQHIGEMSFLQHNKCECRPKKD
no binding: VEGFR-3-Fc | VEGFR-1-Fc | VEGFR-2-Fc

B8: 73-5 (ligand)
chain: GQNHHEVVKSIDNEWRKTQCMPREVCIDVGKEYPDEIEYIFKPPCVSVYRCGGCCNDEGLECVPTEESNITMQIMRIKPHQGQHIGEMSFANHTSCRCMSKLD
no binding: VEGFR-3-Fc | VEGFR-1-Fc | VEGFR-2-Fc

B9: 74-1 (ligand)
chain: GQNHHEVVKSIDNEWRKTQCMPREVCIDVGKEFGVATNTFFKPSCVPLMRCGGCCNDEGLECVPTEESNITMQIMRIKPHQGQHIGEMSFLQHNKCECRPKKD
no binding: VEGFR-3-Fc | VEGFR-1-Fc | VEGFR-2-Fc

B10: 74-2 (ligand)
chain: GQNHHEVVKSIDNEWRKTQCMPREVCIDVGKEFGVATNTFFKPSCVPLMRCGGCCNDEGLECMNTSTSYLSKTLFEIKPHQGQHIGEMSFLQHNKCECRPKKD
no binding: VEGFR-3-Fc | VEGFR-1-Fc | VEGFR-2-Fc

From patent US20080058263A1 (published 2008)
